Experimental data: a protein production outcome set (Wang et al. 2014)

Assay: label from the status in PepcDB records

Sequence | protein production
MGKIQELSEQLANQIAAGEVVERPASVVKELVENALDAGSTQIDIFIEEAGLKTIQIIDNGEGIAKEDVLNAFKRHATSKIHTRDDLFRIRSLGFRGEALPSIASVSEMIVETATAEEEEGSYVILKGGKVEENRPAALRKGTKMTVSNLFYNTPARLKYVKTIQTELANIGDIVNRLALSHPKVAFRLVHDGHKMMSTTGNGDLKQTIAGIYGISTAKKMLKIEGKDLDFTLTGYVSLPEVTRASRNYLSTIINGRYIKNFALNKAIVAGYGSKLMVGRFPIAVLEIEMDPLLVDVNVHPTKQEVRLSKEKDLMALIEQAIQEVLSQEQLIPNAADNLRFKKKLPPEPKAEQMEIPLSTEQPAVKQRPGSLSYNPATGRFYAEHATDETPASSAPEAVNQTERAVDPMDDPFAPPVPESTSVAEETSAYETSSAAADSANHWETASNEQQVIAEETKITEVPDSEPSLRSSEAADEVFQEEMKLHPEFDANSAASQRELKQALNKLEEERPTERFPELEYFGQMHGTYLFAQSKDGLFIIDQHAAQERIKYEYFREKIGEVSDDLQELLVPIVIDYPNSDALKIKEQKETLAEVGIHLEDFGQNSFIVRAHPTWYPAGEEESIVREMIDMLLTTGSVSVKKFREATAIMMSCKRSIKANHYLNEQQARVLLKDLALCENPFNCPHGRPVLIHFTNSDMERMFKRIQDPH | failed
MKLSFSLPSKSKPKVTATTADGNNAVDDGTSKEFVTEFDPSKTLANSIPKYVIPPIENTWRPHKKMKNLDLPLQSGNAGSGLEFEPEVPLPGTEKPDNISYGLNLRQKVKDDSIGGDAVEERKVSMGEQLMLQSLRRDLMSLADDPTLEDFESVPVDGFGAALMAGYGWKPGKGIGKNAKEDVEIKEYKKWTAKEGLGFDPDRSKVVDVKAKVKESVKLDKKGVGINGGDVFFVGKEVRIIAGRDVGLKGKIVEKPGSDFFVIKISGSEEEVKVGVNEVADLGSKEEEKCLKKLKDLQLNDREKDKKTSGRGRGAERGSRSEVRASEKQDRGQTRERKVKPSWLRSHIKVRIVSKDWKGGRLYLKKGKVVDVVGPTTCDITMDETQELVQGVDQELLETALPRRGGPVLVLSGKHKGVYGNLVEKDLDKETGVVRDLDNHKMLDVRLDQVAEYMGDMDDIEY | failed
AADHVKGDGKLTSKKISVADYNEIKVDGVIDFNYEQSDDPSTVEVTVDQNLHPYVNIEVKDRVLTIAFKGAKVDHFTKFIVKTNSKWLAAAKVSGNANFMVNSPLTGDETVIKANANSLVQLKETVTVGKLDLNVSGSANMVVNHLEADKIECDIDGSGSITIKKGNAKEGDYSIVSSGDIHAFGLAVPQLSCKVTGNGLAEVHATDNLKANVVGKGNIRYKGPTAVQQRIIGKGTVEEVKE | not failed
MGHIKKGELTQEEKELLEVIGKGTVQEAGRLLSSKNVHVNCLDENGMTPLMHAAYKGKLEMCKLLLRHGADASCHQHEHGYTALMFAALSGNKDITWVMLEAGAETDVVNSVGRTAAQMAAFVGQHDCVAIINNFFPRERLDYYTKPQGLDKEPKQPPKLAGPLHKIITTTNLHPVKIVMLVSENPLLADAAALGKCYRVMDLICEKCMKQRDMNEVLAMKMHYISCIFQKCITFLKEGENKLDTLIRSLLKGRASDGFPVYQEKIIRESIRKFPYCEATLLQQLVRSIAPVEIGSDPTAFSVLTQAITGQVGFVDVEFCTTCGEKGASKRCSVCKMVIYCDQTCQKTHWFAHKKMCKSLKDVYEKQQIEAAKHKRQEEKNGNPNVSSNHVNEDQPEAEEGITQENSIPSDSVEGEKEAANDTGLASAQDAPTGPQLSEE | failed
MKKNNAISNFYRILSIVLEIFIVAFSIYLAYMVRFRFRIIPPKFNYAPFERSLPFTIIVYMVFMYIFGLVDILKKSLWEIVYSIFLTVIMLFVFTMAITFSLRGFSYPRLVILLSSVFQFFLLSIFKCLWWKLERKIYGTKNTVIIGQNGESIAKKILLKHDDLYSISSIIKNYTEDKKSIVEKADIVLISDDLDENTKSTIIKESMYMNKNIFIVPSVTDIAFYKANFEQIDDVPILKVDTLELSAEQKTVKRLLDIVVAIIATVVFSPFLIILPIIIKCTDGGSPFYFQERVTNGGKKFKLIKFRSMIVNAEKHSGPVLVTENDSRITKIGKIMRATRLDEIPQLFNILKGDMSIVGPRPERPFYVEKFEKEIPDYKYRTFVKAGLTGLAQVLGKYNTTPEDKIKYDIMYIKNYSILLDIKLIIQTVKIMFMKESTEAVKDDVELEEILKKKNIKIKIY | failed
MNNQFSQRVSDIIVYSKEEANRLRSRHIGPEHLLLGMLRDGEGKAIEILSKLNTNLAAVKQQIEARLKTEADDMLLPDAEIPLSNDAAKILKMCILEARGMKSNIADTEHVLLAILRERNNMAASVLEANDVNYVKVLEQATLQPD | failed
MKVLESAPSRYDRGIRIITLGKLDEAYDRLTSRIKPGQRVLDVGCGTGALTLRAALRGARVKAIDINPQMLEIARKRVEEAGVTGMVELCEMGVAELNTEASEGYDAVMAGLCFSELTEDELSYALREIKRVLKPGALLLIADEAVPESPVKRVLSWLIRAPLAVIAYLLIQTTTRAVKNLPEKLGEEGFLIESVRRSFMEDFVEIVARKPGR | failed
MQRLQASLERRQVGIYFAAMALGAVLAWHRPGLQVGEATLNLMLAGMLLATFMQVPLAGWRATLPGMRFLGVLLSVNFVLVPALVWGLAALLPADPMIRLAVLLVLLAPCIDYVVTFAQLGRADARALLAATPVLLCGQMLLLPLYLNVMLGSDAAALIRPGPFVQAFVWLIALPLAAATGVQWAAARSAAWRGAASVVGLLPVPATALVLATIVAAVAPRMALAGEAVSRVVPVYLLFAVIAPAAGWLAARRARLAAPQARAVAFSAGTRNSLVVLPLALAVPGGVPLLPALIVAQTLVELCAELLYVRVFGRAGKDRAGEG | failed
MGSVLVDLQIATENIEGLPTEEQIVQWATGAVQPEGNEVEMTVRIVDEAESHELNLTYRGKDRPTNVLSFPFECPDEVELPLLGDLVICRQVVEREASEQEKPLMAHWAHMVVHGSLHLLGYDHIEDDEAEEMESLETQIMQGLGFDDPYLAEK | not failed
MYYKFGEIKNKIISFNGFEFKVSAMKKHDGISIQVKDMNNVPLKSFHVVDLSELYIAMDAMRDVINEWIEENTDERDRLINLVMRW | failed
MASGMGVDENCVARFNELKIRKTVKWIVFKIENTKIVVEKDGKGNADEFRGALPANDCRFGVYDCGNKIQFVLWCPDNAPVKPRMTYASSKDALLKKLDGATAVALEAHEMGDLAALA | failed
MFAYSARLFLRPLWSDDLGVLLDLLDTASSRSGLLDSPDNDVTRYLRDNAARLIHENDVTRPHSGIFLRDGKEPRLIGITALAGKEAHFFCWIAPAFRGQGFATEASRLMLHFADEALRLPSLTAAYDHADAAAEKLLTKLGFSE | failed
MRLAVLADIHGNADALEAVRADLALQSPDLVVNLGDCLSGPLEVERTADLLMEANWPAVRGNHDRWLVEPEGGTVWETDARPRLSAAQRDWLAALPATRVEAGAFLCHATPGSDLIYWLHHVTPEGHVAPSPLERISRFADGITERLILCGHTHLARSVRLPDGRLVVNPGSVGCPGYEDDAPVPHRVESGTPAACYAILDSKGGDWRVTFRQIPYDHDRAARLAGRYGRPDWESVLATGWLPAQKGQGAL | failed
LSENTTPFGSVSQHDTQVNCQLQLNAANHLIVNEQTRNCFEYFLTQYGEKSLTQIDQDIKNYFTQSLPQPARDQAQDLWQRYLKYREELGNLKEPAIAKTDIAYYRAVFTSRQMLRQRFFSATEIAGLFGSEDIYNQYTLERMAILNNSKLSEIEKAKQLKALFDQLPQDWKANLEQLSKLDDLKQLTTSIKKNGGSAQELHDMRTNLVGHDATARLEQLDVERSNWKSNVTQYLDERQTILNSNMSDTAKQNAISALRSKNFTAPQDQIRVQAFESAKDQ | failed
MGRVLDRIEVVAEEIRGQAVQSEADCRLTDAAAGLLRDSGAIRLLQPRLYGGYEVHPREFAETVMGVAALDGASGWVTGIVGVHPWELAFADPQVQEEIWGEDNDTWMASPYAPMGVATPVDGGYVLKGRWSFSSGTDHCQWAFLGAMVGDGEGGIATPSSLHVILPRTDYQIVEDTWDVIGLRGTGSKDLIVDGAFVPGYRTLNAAKVMDGRAQKEAGRPEPLFNMPYSCMFPLGITAAVIGITEGALACHIAVQKDRVAITGQKIKEDPYVLSAIGESAAEINASRVSLIETADRFYDKVDAGKEITFEERAIGRRTQIAAAWRAVRAADEIFARAGGGALHYKTPMQRFWRDAHAGLAHAVHVPGPTNHASALTQLGGEPQGMMRAMI | not failed
MKTVLLTGFDPFGGESINPAWEVAKSLHEKTIGEYKIISKQVPTVFHKSISVLKEYIEELAPEFIICIGQAGGRPDITIERVAINIDDARIADNEGNQPVDVPVVEEGPAAYWSTLPMKAIVKKLQEEGIPASVSQTAGTFVCNHLFYGLMHELEKHDTKMKGGFIHIPFLPEQASNYPGQPSMSLSTIRKGIELAVEVTTTVEVDIVEVGGTTH | not failed
MPQVDPELFDRGQFQAELALKSSPIAAFKKAIRQFREVLDNRFNSGRDIRRLIEDRAWCVDQILQQAWQRFDWGDDADIALVAVGGYGRGELHPYSDVDLLILLDSEDQESFREPIEGFLTLLWDIGLEVGQSVRSVQQCAEEARADLTVITTLMECRTICGPDSLRQRMLQVTGSAHMWPSKEFFLAKRHEQQRRHAKYNDTEYNLEPNVKGSPGGLRDIQTILWMARRQFGSLNLHALVREGFLVESECSMLASSQEFLWRVRYALHMLAGRAEDRLLFDHQRSIARLFGYEDNDVKLAVERFMQKYYRVVMAISELNDLIIQHFEEVILPCEQPVQIQPLNSRFQLRDGYIEVTHPNVFKRTPFALLEIFVLMAQHPEIKGVRADTIRLLRDSRHLIDDEFRHDIRNTSLFIELFKSSQGIHRNLRRMNRYGILGRYLPEFGHIIGQMQHDLFHIYTVDAHTLNLIKHLRKLNRPEMAEKYPLASKIIDRLPKPELIYIAGLYHDIAKGRGGDHSELGAVDAEAFCQSHQLPLWDTQLVSWLVQNHLVMSTTAQRKDLSDPQVIFDFAQLVGDQTHLDYLYVLTVADINATNPTLWNSWRASLLRQLYTETKRALRRGLENPVDREEQIRQTQTAALDQLVRNGIDQDDAEQLWSQLGDDYFLRHTAGDVAWHTEAILQHPDDGTPLVLIKETTQREFESGSQIFIYAADQHDFFAVTVAAMDQLNLSIQDARIITSTSQFTLDTYIVLDADGDSIGNNPERIAEIREGLIDALKNPDDYPTIIQRRVPRQLKHFAFAPQVTISTDALRQVSVLEVIAPDRPGLLARIGGIFLDFDLSVQNAKIATLGERVEDVFYITDARNQPLADPDLCKRLQAALVEQLSQDNGRDT | failed
MLLISKKSALAAASTTLFVLLWSSGAIFSKWGLAHASPFAFLLLRFVIALIGLMLLAPLLKLRLPRGRRAMGFAVATGLVLLGAYQIFYILALDLKVTPGVMATIMGVQPILTVVLMERQRSWSRLFGLSLGLAGLVMVVYQSIGLAGMSITGMLCGLLALVSMTAGSIMQKRITDNPLGTLPVQYLAGLLLCALFVPFQPFHFEHSAGFVIPLLWMGLVVSVLATLLLYRLIAQGNLVNVTSLFYLVPAVTALMDYLFFGNRLGLLSLVGMGLIIVGLVFVFRKQP | not failed
MAFSAPEPELSVVVPTLNEAETVATLLAALAAQRDVALELLLCDGGSTDGTAALVRGRAGDLPFPVTVTETPPGRGRQMNAGAAAARGATFLFLHADSIIADPLALRRGLDHLAAARRSDKRAAGHFRLRFAGDSPSPLAYRFYERKARLHRPGCTHGDQGLLIPREFFDQVGPFDEGLPILEDVRLAERIAAMGTWVLLPAEIITSARRFETEGLRERQTLNAILMNFAAIGWQQGVEELVAGYRSQDRSGRLRLGPHLARIAGLTAALPRQERLRLWYLTGGYVRGNAWQIPLFLDVRNAWRRGGDDGATPLLSLHDRWFDLLTDNPAGRAAAALMTFLWFRLTLRREMKDWPGILRTPLEHHHHHH | failed
MDLESVKKYLEGDEDEKAKEPMVAKLPHRFLERFVTNGLKVDLIEPGRIVCSMKIPPHLLNAGKFLHGGATATLVDLIGSAVIYTAGASHSGVSVEINVSYLDAAFLDEEIEIESKALRVGKAVAVVSVELRKKTTGKIIAQGRHTKYFAPRSNL | failed
